# Measurements: patent US20220267443A1
# Molecular target: CTLA-4-Ig
# Assay: -; modified from Xu et al., JI 2012
row,Kd,Substance
1,0.3 nM,CD80-Fc-His
2,3.6 nM,CD86-Fc-His
